Patent US20210155689A1 (SHANGHAI PHARMAEXPLORER, published 2021)
Positions count from the first letter of the chain named.

T1: mouse LAG-3 protein with hFc tag (mLAG-3-hFc protein) (mouse; human, UniProt Q61790 24-442)
T1 construct: Made in HEK293 cells; also called mouse LAG-3 extracellular domain protein; not shown: human IgG Fc fragment (hFc) of the pCpC vector
T1 sequence: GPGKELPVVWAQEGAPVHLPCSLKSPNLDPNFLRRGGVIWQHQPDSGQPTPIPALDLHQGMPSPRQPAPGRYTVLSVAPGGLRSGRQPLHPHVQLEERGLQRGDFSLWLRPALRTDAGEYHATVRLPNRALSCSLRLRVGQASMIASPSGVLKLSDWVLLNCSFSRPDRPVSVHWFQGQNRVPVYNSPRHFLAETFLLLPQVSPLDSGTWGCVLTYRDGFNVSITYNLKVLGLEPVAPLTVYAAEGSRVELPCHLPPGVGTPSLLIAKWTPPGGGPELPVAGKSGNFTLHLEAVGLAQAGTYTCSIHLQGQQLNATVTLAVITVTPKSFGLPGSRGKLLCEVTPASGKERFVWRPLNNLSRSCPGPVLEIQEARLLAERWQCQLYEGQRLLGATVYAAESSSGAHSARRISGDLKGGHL

T2: human LAG-3 ECD (antigen protein of the affinity test) (human, UniProt P18627 23-450)
T2 sequence: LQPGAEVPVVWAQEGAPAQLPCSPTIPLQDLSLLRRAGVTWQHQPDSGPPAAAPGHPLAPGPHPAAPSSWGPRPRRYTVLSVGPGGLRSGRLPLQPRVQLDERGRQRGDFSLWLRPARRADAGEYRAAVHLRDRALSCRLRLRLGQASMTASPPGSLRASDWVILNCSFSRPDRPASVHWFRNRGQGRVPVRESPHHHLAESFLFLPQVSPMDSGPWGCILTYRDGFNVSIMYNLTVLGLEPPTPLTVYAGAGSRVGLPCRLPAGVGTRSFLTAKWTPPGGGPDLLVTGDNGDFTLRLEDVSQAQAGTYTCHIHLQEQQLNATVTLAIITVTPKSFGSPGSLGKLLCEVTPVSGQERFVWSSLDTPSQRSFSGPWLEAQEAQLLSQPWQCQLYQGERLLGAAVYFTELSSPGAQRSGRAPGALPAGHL

T3: human LAG-3 (full length, on the cell surface) (human, UniProt P18627 23-525)
T3 sequence: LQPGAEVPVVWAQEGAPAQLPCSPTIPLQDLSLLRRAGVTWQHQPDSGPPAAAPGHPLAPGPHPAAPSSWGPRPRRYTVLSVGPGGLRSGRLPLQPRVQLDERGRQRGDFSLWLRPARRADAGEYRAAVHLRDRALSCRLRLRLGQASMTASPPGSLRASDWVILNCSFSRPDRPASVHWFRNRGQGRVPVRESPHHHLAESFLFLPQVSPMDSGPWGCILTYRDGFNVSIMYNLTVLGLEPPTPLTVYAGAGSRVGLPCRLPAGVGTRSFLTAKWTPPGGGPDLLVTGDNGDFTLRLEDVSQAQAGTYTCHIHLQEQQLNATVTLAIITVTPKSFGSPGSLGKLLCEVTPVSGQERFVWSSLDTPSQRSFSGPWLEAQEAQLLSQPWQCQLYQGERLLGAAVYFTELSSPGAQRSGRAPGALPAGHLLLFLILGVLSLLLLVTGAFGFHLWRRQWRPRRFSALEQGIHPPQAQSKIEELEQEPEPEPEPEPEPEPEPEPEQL

T4: LAG-3-hFc protein (human LAG-3 extracellular region with hFc tag) (human, UniProt P18627 23-450)
T4 construct: also called hLAG-3-hFc; LAG-3 protein; not shown: human IgG Fc fragment (hFc) of the pCpC vector
T4 sequence: T2 sequence

B1: 105F1E10 (LAG-3 mouse-human chimeric antibody) (antibody, V domains shown)
VH: EVQLQQSGPELVKPGASVKMSCRASGYTFTDFKMHWMKQSHGKSLEWIGYIAPNNGGTAYNQKFRGKATLTVNESSNTAYMELRSLTSEDSAVYYCVDWDDVDYWGQGTTLTVSS
VL: DIKMTQSPSSMYASLGERVTITCKASQDINSYLSWFQQKSGKSPKTLIYRANRLVDGVPSRFSGSGSGQDYSLTISSLEYEDMGIYYCLQYVEFPLTFGAGTKLELK
B2: 405B8H3 (LAG-3 mouse-human chimeric antibody) (antibody, V domains shown)
VH: QVQLQQSGAELVRPGASVTLSCKASGYTFTDYEMHWVKQTPVHGLEWIGATDPETGNSAYNQKFKGKAIMTADKSSSTAYMELRSLTSEDSAVYYCISTGWNDWGQGTSLTVSS
VL: B1 VL with S40P, N52D, V55L, E81G, V92D, L96Y, A100G, L106I
notes: also called mouse-human chimeric antibody 405B8H3
B3: 409D4E10 (LAG-3 mouse-human chimeric antibody) (antibody, V domains shown)
VH: B2 VH with Y27N, G56D, S58T, M70L, A72T, S98T, T99S
VL: B1 VL with S40P, V55L, V92N, L96Y, A100G, L106I
B4: 409B11E12 (LAG-3 mouse-human chimeric antibody) (antibody, V domains shown)
VH: B2 VH with P41T, G56S, N57Y, M70L, S98A
VL: B1 VL with I2L, S40P, V55L, V92D, L96Y, A100G, L106I
B5: 556F6B8 (LAG-3 mouse-human chimeric antibody) (antibody, V domains shown)
VH: RVQLKQSGPGLVQPSQSLSITCTVSGFSLIKYGVHWVRQSPGEGLEWLGVIWRGGITDYNAAFMSRLSITKDNSKSQVFFKMNSLQADDTAIYYCAKWDGPLAMDYWGQGTSVTVSS
VL: DIVMTQSHKFLSTSVGDRVSITCKASQDVGTTVAWYQQKPGQSPKLLIYWASTRHTGVPDRFTGSGSGTDFTLTISNVQSEDLADYFCQQYSSYPYTFGGGTKLEIK
notes: also called 556F8B8
B6: 556F6B8 mouse-human chimeric antibody (antibody, V domains shown)
VH: B5 VH
VL: B5 VL
notes: also called mAb123-556F6B8; 556F8B8
B7: 405B8H3 (mouse antibody purified from hybridoma) (antibody, V domains shown)
VH: B2 VH
VL: B1 VL with S40P, N52D, V55L, E81G, V92D, L96Y, A100G, L106I
notes: also called mAb103-405B8H3; 405B81-13
B8: 409B11E12 (mouse antibody purified from hybridoma) (antibody, V domains shown)
VH: B2 VH with P41T, G56S, N57Y, M70L, S98A
VL: B1 VL with I2L, S40P, V55L, V92D, L96Y, A100G, L106I
notes: also called mAb104-409B11E12
B9: 409D4E10 (mouse antibody purified from hybridoma) (antibody, V domains shown)
VH: B2 VH with Y27N, G56D, S58T, M70L, A72T, S98T, T99S
VL: B1 VL with S40P, V55L, V92N, L96Y, A100G, L106I
notes: also called mAb112-409D4E10
B10: 556F6B8 (mouse antibody purified from hybridoma) (antibody, V domains shown)
VH: B5 VH
VL: B5 VL
notes: also called mAb123-556F6B8
B11: 409B11E12 mouse-human chimeric antibody (antibody, V domains shown)
VH: B2 VH with P41T, G56S, N57Y, M70L, S98A
VL: B1 VL with I2L, S40P, V55L, V92D, L96Y, A100G, L106I
notes: also called mAb104-409B11E12
B12: 409D4E10 mouse-human chimeric antibody (antibody, V domains shown)
VH: B2 VH with Y27N, G56D, S58T, M70L, A72T, S98T, T99S
VL: B1 VL with S40P, V55L, V92N, L96Y, A100G, L106I
notes: also called mAb112-409D4E10

Biological target: T1, mouse LAG-3 protein with hFc tag …
Assay: ELISA, mLAG-3-hFc coated; 0.0000 nM
Protocol: The plate was sealed with plastic film and incubated overnight at 4° C. The plate was washed 2 times with the plate washing solution (PBS+0.01% Tween20) on the next day, and added with the blocking solution (PBS+0.01% Tween20+1% BSA) and blocked at room temperature for 1-2 hours. The blocking solution was poured out, and the plate was added with 50-100 μl of the antibody sample to be tested to each well, incubated at 37° C. for 1-2 hours, and washed 2-3 times with a plate washing solution (PBS+0.01% Tween20). HRP (horseradish peroxidase) labeled secondary antibody was added, and the plate was incubated at 37° C. for 1-2 hours, and washed 2-3 times with a plate washing solution (PBS+0.01% Tween20). 100 μl of TMB substrate was added to each well. After incubated at room temperature for 15-30 minutes, the plate was added with 100 μl of stop solution (1.0N HCl) to each well.

Compared with B1, B2 is higher in OD450: 0.08 OD450 for the first, 0.1 OD450 for the second.

Going from B3 to B4, the OD450 falls from 0.09 OD450 to 0.08 OD450.

For B5, the OD450 was 0.09 OD450.

Biological target: T2, human LAG-3 ECD (antigen protein of the …)
Assay: SPR, CM5 chip, antibody captured by anti-human Fc IgG, antigen in flow, 1:1 fit
Protocol: First, anti-human Fc IgG was immobilized on the surface of the CM5 chip to 6000-10000 RU by amino coupling method, with FC1 as the reference channel. The coupling process was as follows: a freshly prepared 1:1 mixture of 50 mM NHS and 200 mM EDC was activated for 7 minutes, then injected with 10-50 ug/ml anti-human Fc IgG diluted in 10 mM sodium acetate ph5.0 buffer. The remaining activated sites were blocked with 1M ethanolamine. Then, HBS-EP+ buffer was used to dilute the antibody to be tested to 5 ug/ml (adjustable according to the capture level) and the antibodies were captured on the chip at a flow rate of 10 ul/min to obtain a response value of about 100˜300 RU. Then the antigen protein was diluted to 100 nM (the highest concentration was tentatively 100 nM), and flew through the chip surface at a flow rate of 30 ul/min. If enough signal value was obtained, the antigen-protein was diluted by several concentration gradients, and flew through the chip surface respectively. At the end of each cycle, the chip surface was regenerated with 10 mM Glycine at pH 1.5. The kinetic rate constant needed to be subtracted from the blank control, and the data was fitted with the global fit analysis method 1:1 combination model. The dissociation equilibrium rate constant (KD) was calculated according to the following formula: KD=kd/ka.

B6 was tested, and the Kd was 3.77 nM.

For B6, the koff was 0.000459 s⁻¹.

B6 was tested, and the kon was 122000 M⁻¹ s⁻¹.

Biological target: T3, human LAG-3 (full length, on the cell …)
Assay: cell-based or functional assay

B7 and B8 are within 1.5-fold of each other in “mIL-2 (pg/mL), antigen-specific T lymphocyte stimulation test; antibody 0.016 ug/mL” value: 205 pg/mL for the first, 187 pg/mL for the second.

Compared with B9, B10 is 1.9-fold lower in “mIL-2 (pg/mL), antigen-specific T lymphocyte stimulation test; antibody 0.016 ug/mL” value: 172 pg/mL for the first, 88.3 pg/mL for the second.

B7 and B8 are within 1.5-fold of each other in “mIL-2 (pg/mL), antigen-specific T lymphocyte stimulation test; antibody 0.08 ug/mL” value: 204 pg/mL for the first, 183 pg/mL for the second.

B9 and B10 are within 1.5-fold of each other in “mIL-2 (pg/mL), antigen-specific T lymphocyte stimulation test; antibody 0.08 ug/mL” value: 175 pg/mL for the first, 141 pg/mL for the second.

B7 and B8 are within 1.5-fold of each other in “mIL-2 (pg/mL), antigen-specific T lymphocyte stimulation test; antibody 2 ug/mL” value: 435 pg/mL for the first, 376 pg/mL for the second.

B9 and B10 are within 1.5-fold of each other in “mIL-2 (pg/mL), antigen-specific T lymphocyte stimulation test; antibody 2 ug/mL” value: 346 pg/mL for the first, 270 pg/mL for the second.

B7 and B8 are within 1.5-fold of each other in “mIL-2 (pg/mL), antigen-specific T lymphocyte stimulation test; antibody 4 ug/mL (so in the source)” value: 392 pg/mL for the first, 374 pg/mL for the second.

B9 and B10 are within 1.5-fold of each other in “mIL-2 (pg/mL), antigen-specific T lymphocyte stimulation test; antibody 4 ug/mL (so in the source)” value: 261 pg/mL for the first, 214 pg/mL for the second.

B7 and B8 are within 1.5-fold of each other in “mIL-2 (pg/mL), antigen-specific T lymphocyte stimulation test; antibody 10 ug/mL” value: 441 pg/mL for the first, 364 pg/mL for the second.

B9 and B10 are within 1.5-fold of each other in “mIL-2 (pg/mL), antigen-specific T lymphocyte stimulation test; antibody 10 ug/mL” value: 335 pg/mL for the first, 255 pg/mL for the second.

Biological target: T4, LAG-3-hFc protein (human LAG-3 …)
Assay: FACS, inhibition of LAG-3-hFc binding to MHC II on Raji cells, antibody 200.000 nM
Protocol: The FACS reaction plate incubating the Raji cells was centrifuged to discard the supernatant. The above mixture was added as 100 μl per well to Raji cells and incubated on ice for 1-2 hours. The plate was washed twice with blocking solution (PBS, 2% fetal bovine serum) by centrifugation, added with 100 microliters of fluorescent (Alexa 488)-labeled secondary antibodies per well, and incubated on ice for 1.0 hours. The plate was washed 2-3 times by centrifugation with blocking solution (PBS, 2% fetal bovine serum), added with 100 microliters of PBS per well to suspend cells, and detected using FACS (FACS Calibur, BD) and the results were analyzed. Wherein, the IgG control was murine IgG, and the data in the table is the inhibition rate (%).

Compared with B11, B12 is higher in “Inhibition rate (%)” value: 94.8% for the first, 95.7% for the second.

B6 was tested, and the “Inhibition rate (%)” value was 95.2%.
